# Ends that are not written are not given here. * marks the point of attachment. Biotin = O=C1N[C@H]2[C@H](CS[C@H]2CCCCC(=O)*)N1
# Tests used:
# [1] = tested on: normal human keratinocytes; assay: Cell viability test (XTT); details: 100 to 1 μg/ml, medium renewed every two days (repeated twice)
# Description: NHKs were seeded in 96-well plates at 10^4 cells per well. After 24 hours, the culture media were removed and replaced with KBM-2 medium containing the concentrations of peptide [sequence] (SEQ ID NO: 1) (upper curve) or LG4/5 protein (lower curve) shown. After 48 h of contact at 37° C. the media were removed and this step was repeated twice. After 48 h of contact at 37° C. the media were replaced by XTT reagent. The plates were then placed in an incubator at 37° C. and the absorption was read after 6 hours. Controls with neither peptide nor protein were made on the same plate.
# The effect of the peptide on the cell viability of the normal human keratinocytes was analysed using a colorimetric assay (XTT Cell Proliferation Kit, Roche Diagnostics, Meylan, France). A control with the LG4/5 protein was carried out in parallel. The chemical reaction of the test is based on the production of NADPH in living cells reducing yellow tetrazolium XTT salts to orange formazan salts. Absorption at 490 nm is measured using an ELISA plate reader. […] In this case, cell viability was calculated from the formula: % viability=(Abs. cells with peptide/Abs. control cells)×100.
# syndecan-1 = biological target: T1, syndecan-1 (Homo sapiens, UniProt P18827); assay: Affinity chromatography (pull-down) with peptide-coated beads and syndecan-1 immunodetection; assay type: binding; details: lysate of normal human keratinocytes, 2 mg; immunoblotting with antibody H174
# T1 construct: endogenous in cells; host or cells: primary normal human keratinocytes from foreskin biopsies
# T1 sequence (P18827 23-310): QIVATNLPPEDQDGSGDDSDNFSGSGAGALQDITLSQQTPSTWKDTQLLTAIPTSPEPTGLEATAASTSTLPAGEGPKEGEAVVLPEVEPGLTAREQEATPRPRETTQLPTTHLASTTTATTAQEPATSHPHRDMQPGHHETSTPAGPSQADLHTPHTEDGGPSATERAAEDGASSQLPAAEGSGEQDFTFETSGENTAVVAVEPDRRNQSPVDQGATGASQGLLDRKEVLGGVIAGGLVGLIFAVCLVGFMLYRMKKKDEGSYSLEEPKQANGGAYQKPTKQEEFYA
# Description: (A) A lysate of normal human keratinocytes was prepared as described in the Materials and Methods section and 2 mg of the lysate were incubated with neutravidin beads not coated or coated with the biotinylated peptides KKLRIKSKEK (SEQ ID NO: 1), PSGKPKSLP (SEQ ID NO: 19) and TSVTPKQSL (SEQ ID NO: 20). After washing, the material bound to the beads was digested with a mixture of heparitinase I and chondroitinase ABC to release the protein part of the syndecan-1 from the glycosaminoglycans. The samples were then analysed by SDS PAGE electrophoresis in an 8% acrylamide gel under non-reducing conditions and by immunoblotting with polyclonal anti-syndecan antibody H174. (B) A lysate of normal human keratinocytes was prepared and 2 mg of the lysate were incubated with neutravidin beads not coated or coated with the biotinylated peptide KKLRIKSKEK (SEQ ID NO: 1), or with sepharose beads coated with the whole LG4/5 fragment. After washing, the material bound to the beads was digested with a mixture of heparitinase I and chondroitinase ABC to release the protein part of the syndecan-1 from the glycosaminoglycans. The samples were then analysed by SDS PAGE electrophoresis in an 8% acrylamide gel under non-reducing conditions and by immunoblotting with polyclonal anti-syndecan antibody H174. (A, B) The position of molecular weight markers is shown on the left.
# (§1) A series of point mutations was introduced into the peptide KKLRIKSKEK (SEQ ID NO: 1) by successively replacing each amino acid by an alanine (A). […] The samples were then analysed by SDS PAGE electrophoresis in an 8% acrylamide gel under non-reducing conditions and by immunoblotting with polyclonal anti-syndecan antibody H174. […]
# as §1, with “point or multiple” for “point”, “by” for “by successively”, “one or more lysines (K)” for “each amino acid”, “a glutamine (Q).” for “an alanine (A).”
# HT1080 cells = assay: Cell adhesion test (crystal violet colorimetric) on immobilised peptide, HT1080 cells; assay type: cell-based, Human; details: microscopy, FIG. 6B
# Description: (A, B) Dose-dependent adhesion of normal human keratinocytes and cells of the HT1080 strain to the peptide KKLRIKSKEK (SEQ ID NO: 1) and to the LG4/5 protein. The peptide (A) and the protein LG4/5 (B) were immobilised on 96-well plates at the concentrations indicated on the abscissa. 6·10^4 cells were deposited in each well and the plates were incubated at 37° C. for 1 hour. After washing, the adherent cells were fixed and cell adhesion was measured as described in the methodology section. (C) Observation of normal human keratinocytes and HT1080 cells adhering to KKLRIKSKEK peptide (SEQ ID NO: 1) and to the LG4/5 protein. The observation was made with a Zeiss Axiovert 40 microscope equipped with a PlasDic interference unit. 50 μm bar.
# (A) A decreasing range of peptides KKLRIKSKEK (SEQ ID NO: 1) and NSFMALYLSKGR (SEQ ID NO: 21) was immobilised in 96-well Microlon plates and the amount actually adsorbed was determined by protein assay with reference to a corresponding range of peptides made extemporaneously. The quantities of peptide tested are indicated on the abscissa of the graph. 6·10^4 cells were deposited in each well and the plates were incubated at 37° C. for 1 hour. After washing, the adherent cells were fixed and cell adhesion was measured as described in the methodology section. […]
# [2] = biological target: T2, syndecan-1 from lysates of normal human keratinocytes or normal human fibroblasts (human, UniProt P18827 23-310, limits assumed, carries heparan sulphate and chondroitin sulphate chains during binding; stripped with heparitinase I and chondroitinase ABC before the immunoblot); assay: pull-down from normal human keratinocyte lysate, immunoblot with H174
# T2 construct: Endogenous proteoglycan of cell lysates; also called syndecan-1 receptor
# T2 sequence (looked up): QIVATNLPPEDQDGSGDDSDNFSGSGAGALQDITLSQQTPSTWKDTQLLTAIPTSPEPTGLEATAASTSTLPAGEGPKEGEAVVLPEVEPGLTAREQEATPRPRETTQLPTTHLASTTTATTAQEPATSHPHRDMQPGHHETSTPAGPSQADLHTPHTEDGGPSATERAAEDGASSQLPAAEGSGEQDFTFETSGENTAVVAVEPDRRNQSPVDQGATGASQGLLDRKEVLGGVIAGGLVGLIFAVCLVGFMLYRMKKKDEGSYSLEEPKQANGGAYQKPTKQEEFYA
# Description: To identify the nature of the cell receptor binding to the peptide […] (SEQ ID NO: 1), affinity chromatography or 'pull-down' assays were performed by incubating beads coated with peptides with cell lysates. Lysates of primary keratinocytes or fibroblasts were made using a lysis buffer of 1% triton X-100 in PBS, pH 7.5, containing N-ethylmaleimide and phenylmethylsulphonylfluoride 50 mM. The wild type peptide […] (SEQ ID NO: 1) and the mutated peptides were bound to biotin at their amino-terminal ends and 100 µg of each biotinylated peptide were attached to agarose-neutravidin beads (Perbio Science, Bezons, France) by incubation for 16 hours at +4° C. The beads were then incubated with 2 mg of cell lysate for 2 hours at +4° C. After washing 3 times with the lysis buffer, the beads were transferred into a digestion buffer (20 mM sodium acetate, 5 mM CaCl2, pH 7.0) containing 8 mU/ml heparitinase I and 50 mU/ml of chondroitinase ABC (Seikagaku America, Coger, Paris, France) for 2 hours at 25° C. This treatment strips the protein part of syndecan-1 of glycosaminoglycans, making it easier to analyse by immunoblotting. The samples were then analysed by SDS PAGE electrophoresis in an 8% acrylamide gel under non-reducing conditions and by immunoblotting with polyclonal anti-syndecan antibody H174 (Santa Cruz Biotechnology, Le Perray en Yvelines, France).
Binding of syndecan-1 to the biotinylated peptide on beads (syndecan-1),binding result [2],Molecule,other results
–,–,KKLRIKSKEK [KKLRIKSKEK],Cytotoxic effect on epidermal keratinocytes (percentage of viable cells vs controls) [1]: neither peptide KKLRIKSKEK (SEQ ID NO: 1) nor protein LG4/5 has any long-term cytotoxic effect
proved capable of binding syndecan-1,–,"KKLRLRSKER [M2, from the murine laminin alpha3 chain]",–
–,–,NSFMALYLSKGR,Morphology of HT1080 cells adhering to the peptide (HT1080 cells): no cytoplasmic prolongations were noted
did not retain the syndecan-1,–,PSGKPKSLP,–
did not retain the syndecan-1,–,TSVTPKQSL,–
–,no binding,Biotin-KKLAIKSKEK [mutated peptide A4 (alanine in place of amino acid 4 of …)],–
–,no binding,Biotin-AKLRIKSKEK [mutated peptide A1 (alanine in place of amino acid 1 of …)],–
–,no binding,Biotin-KKLRIKAKEK [mutated peptide A7 (alanine in place of amino acid 7 of …)],–
–,no binding,TSVTPKQSL (also: biotinylated) [biotinylated peptide TSVTPKQSL (SEQ ID NO: 20)],–
–,no binding,PSGKPKSLP (also: biotinylated) [biotinylated peptide PSGKPKSLP (SEQ ID NO: 19)],–

# From patent US9260507B2, “Peptide promoting cell adhesion and migration” (Symatese, priority 2009, dated 2016)
